B1: CysR∼CTLD3-Fc of DEC205 [human] / K10-T10 (residue G481-G490), SUMO fusion [human] (parent complex)
chain 1: SGRAANDPFTIVHGNTGKCIKPVYGWIVADDCDETEDKLWKWVSQHRLFHLHSQKCLGLDITKSVNELRMFSCDSSAMLWWKCEHHSLYGAARYRLALKDGHGTAISNASDVWKKGGSEESLCDQPYHEIYTRDGNSYGRPCEFPFLIDGTWHHDCILDEDHSGPWCATTLNYEYDRKWGICLKPENGCEDNWEKNEQFGSCYQFNTQTALSWKEAYVSCQNQGADLLSINSAAELTYLKEKEGIAKIFWIGLNQLYSARGWEWSDHKPLNFLNWDPDRPSAPTIGGSSCARMDAESGLWQSFSCEAQLPYVCRKPLNNTVELTDVWTYSDTRCDAGWLPNNGFCYLLVNESNSWDKAHAKCKAFSSDLISIHSLADVEVVVTKLHNEDIKEEVWIGLKNINIPTLFQWSDGTEVTLTYWDENEPNVPYNKTPNCVSYLGELGQWKVQSCEEKLKYVCKRKGEKLNDASSDKMCPPDEGWKRHGETCYKIYEDEVPFGTNCNLTITSRFEQEYLNDLMKKYDKSLRKYFWTGLRDVDSCGEYNWATVGGRRRAVTFSNWNFLEPASPGGCVAMSTGKSVGKWEVKDCRSFKALSICKKMS
chain 2: GSSGGGHGGG

Variants of: B1
Assay: ELISA; pH 6.0; protein conc 5 µg/ml (highest point of the titration); parent: 3.9; read off a plot

response [OD 450] | Variant
~1.9 | chain 2 GSSGGGRGGG [chain 2 H7R]
~2.1 | chain 2 GSRGGGHGGG [chain 2 S3R]

Reference: article PMC10914487, “Interaction of human dendritic cell receptor DEC205/CD205 with keratins” (The Journal of Biological Chemistry, 2024)
